This note sets out measurements from article PMC3895269 (RNA, 2014).

The target of this assay is Geobacillus kaustophilus ribosomal protein S18 (Geobacillus kaustophilus, UniProt Q5KU71 1-78). Description: native gel or EMSA. In general terms: In EMSA bound probe runs differently from free probe, usually more slowly.

B1: Geobacillus kaustophilus ribosomal protein S6 (natural protein)
chain: MRKYEIMYIIRPNMDDEARQALVERFNNVLKENGAEITNVTDWGKRRLAYEIQKYRDGYYMIVNVVSEPKAVQEFDRLARISEDIIRHIVVKEEE
Take B1: the binding result is “binds”.
